The target of data set [1] is T1, Marburgvirus (Marburg Musoke) nucleoprotein, polymeric (Marburg virus, Musoke, UniProt P27588).
T1 construct: source: HEK 293T, transient transfection, purified (CsCl gradient)
The experiment in a line: ELISA. The settings on record: both partners purified. (An ELISA detects its analyte on a solid surface through an enzyme-linked reagent.)

Data set [2] concerns the molecule itself. The experiment in a line: transmission electron microscopy of HA-NP and sdAb mixtures.

B1: anti-MARV NP sdAb A monomer (pecan126) (VHH)
VHH: EVKLQESGGGLVQAGESLRLSCAVPPEVFDIRTVAWYRQVPLGKGRELLSSITPWNKTTYEDSVKDRFTISRDNAKYTVYLQMNDLKPEDTAVYYCAQGWGIASMRYWGQGTQVTVSS
notes: also called anti-MARV sdAb A; source: E. coli HBV88 periplasm, purified (IMAC, gel filtration)
As to B1, the binding result in data set [1] was “binds”.

B2: anti-MARV NP sdAb C monomer (pecan126) (VHH)
VHH: KVQLQESGGGLVQVGGSLRLSCKASGFTFRSSAMGWYRRAPGKQRELVASLTTTGTADYGDFVKGRFTISRDNAENTVDLHMNSLKPEDTAVYYCHEDPYGMESLRYWGQGTQVTVSS
notes: also called anti-MARV sdAb C; source: E. coli HBV88 periplasm, purified (IMAC, gel filtration)
For the molecule B2, the binding result in data set [1] is recorded as “binds”.

B3: anti-MARV NP sdAb B monomer (pecan126) (VHH)
VHH: KVQLQESGGGLVQAGGSLRLSCAASGGTFSINTLGWYRRAPGKEREFVARISSGGITRYADSVKGRFTISRDNGKNTVYLDMNSLKPEDTAVYYCMYRNWGGGLDVYWGQGTQVTVSS
notes: also called anti-MARV sdAb B; source: E. coli HBV88 periplasm, purified (IMAC, gel filtration)
With B3, the binding result in data set [1] was “binds”.

B4: HA-tagged Marburgvirus (Marburg Musoke) nucleoprotein, polymeric (natural protein)
chain: MDLHSLLELGTKPTAPHVRNKKVILFDTNHQVSICNQIIDAINSGIDLGDLLEGGLLTLCVEHYYNSDKDKFNTSPVAKYLRDAGYEFDVIKNADATRFLDVSPNEPHYSPLILALKTLESTESQRGRIGLFLSFCSLFLPKLVVGDRASIEKALRQVTVHQEQGIVTYPNHWLTTGHMKVIFGILRSSFILKFVLIHQGVNLVTGHDAYDSIISNSVGQTRFSGLLIVKTVLEFILQKTDSGVTLHPLVRTSKVKNEVASFKQALSNLARHGEYAPFARVLNLSGINNLEHGLYPQLSAIALGVATAHGSTLAGVNVGEQYQQLREAAHDAEVKLQRRHEHQEIQAIAEDDEERKILEQFHLQKTEITHSQTLAVLSQKREKLARLAAEIENNIVEDQGFKQSQNRVSQSFLNDPTPVEVTVQARPMNRPTALPPPVDDKIEHESTEDSSSSSSFVDLNDPFALLNEDEDTLDDSVMIPGTTSREFQGIPEPPRQSQDLNNSQGKQEDESTNRIKKQFLRYQELPPVQEDDESEYTTDSQESIDQPGSDNEQGVDLPPPPLYAQEKRQDPIQHPAANPQDPFGSIGDVNGDILEPIRSPSSPSAPQEDTRMREAYELSPDFTNDEDNQQNWPQRVVTKKGRTFLYPNDLLQTNPPESLITALVEEYQNPVSAKELQADWPDMSFDERRHVAMNL
notes: also called MARV HA-NP; HA-NP
For the molecule B4, in data set [2], the binding result was “binds”.

Source of the values: PMC5623874 (Frontiers in Immunology, 2017).
